T1: DBF4 (human DBF4/ASK1), Q9UBU7
T1 chain: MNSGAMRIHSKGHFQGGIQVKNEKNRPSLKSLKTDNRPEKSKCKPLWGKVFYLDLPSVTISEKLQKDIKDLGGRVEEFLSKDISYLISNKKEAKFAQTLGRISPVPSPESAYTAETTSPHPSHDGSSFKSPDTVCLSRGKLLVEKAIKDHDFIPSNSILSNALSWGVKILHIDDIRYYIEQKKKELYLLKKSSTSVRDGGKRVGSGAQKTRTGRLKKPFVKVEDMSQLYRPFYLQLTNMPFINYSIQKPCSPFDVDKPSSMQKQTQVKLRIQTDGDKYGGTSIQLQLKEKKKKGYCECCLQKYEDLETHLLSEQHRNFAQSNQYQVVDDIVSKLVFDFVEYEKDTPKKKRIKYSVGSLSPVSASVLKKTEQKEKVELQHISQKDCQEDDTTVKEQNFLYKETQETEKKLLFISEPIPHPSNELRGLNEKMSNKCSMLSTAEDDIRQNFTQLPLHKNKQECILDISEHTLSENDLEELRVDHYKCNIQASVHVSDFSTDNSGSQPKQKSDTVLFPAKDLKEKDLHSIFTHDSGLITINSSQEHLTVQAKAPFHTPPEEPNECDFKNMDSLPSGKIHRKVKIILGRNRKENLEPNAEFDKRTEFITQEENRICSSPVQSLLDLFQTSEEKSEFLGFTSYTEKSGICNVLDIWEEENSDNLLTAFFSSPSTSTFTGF

T2: HA-DRF1 (DRF1 with N-terminal HA epitope, expressed from pCDNAHAdrf1)
T2 chain: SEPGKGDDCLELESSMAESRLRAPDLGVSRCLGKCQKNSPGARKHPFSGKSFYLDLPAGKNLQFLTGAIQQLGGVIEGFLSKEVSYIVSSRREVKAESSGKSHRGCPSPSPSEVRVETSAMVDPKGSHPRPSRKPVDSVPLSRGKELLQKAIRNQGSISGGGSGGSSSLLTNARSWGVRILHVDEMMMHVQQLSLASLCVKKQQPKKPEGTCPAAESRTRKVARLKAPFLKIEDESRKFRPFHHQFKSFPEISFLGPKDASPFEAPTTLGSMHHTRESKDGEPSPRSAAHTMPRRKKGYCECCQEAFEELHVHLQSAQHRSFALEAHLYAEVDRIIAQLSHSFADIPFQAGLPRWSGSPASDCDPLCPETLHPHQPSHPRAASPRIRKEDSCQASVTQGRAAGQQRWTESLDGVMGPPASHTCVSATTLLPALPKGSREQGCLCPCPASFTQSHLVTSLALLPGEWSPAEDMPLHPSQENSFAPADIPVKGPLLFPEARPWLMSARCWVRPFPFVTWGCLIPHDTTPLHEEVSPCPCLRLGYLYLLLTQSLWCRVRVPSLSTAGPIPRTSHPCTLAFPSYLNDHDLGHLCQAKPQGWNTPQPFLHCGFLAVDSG


Experiments:
[1] = molecular target: T1, DBF4 (human DBF4/ASK1), Q9UBU7
[2] = molecular target: T2, HA-DRF1 (DRF1 with N-terminal HA …)

Protein	phosphorylation of MCM2 (1-285) by immunoprecipitated complexes (32P kinase assay, autoradiography) [1]	phosphorylation of DRF1 (32P, FIG. 3 panel A) [2]	phosphorylation of MCM2 (1-285) by immunoprecipitated complexes (32P kinase assay, autoradiography) [2]	phosphorylation of MCM2 by CDC7 [2]
FLAG-tagged human CDC7 kinase, wild type (pCdc7FLAG-tagged, in pCMV-Tag2) (protein) MEASLGIQMDEPMAFSPQRDRFQAEGSLKKNEQNFKLAGVKKDIEKLYEAVPQLSNVFKIEDKIGEGTFSSVYLATAQLQVGPEEKIALKHLIPTSHPIRIAAELQCLTVAGGQDNVMGVKYCFRKNDHVVIAMPYLEHESFLDILNSLSFQEVREYMLNLFKALKRIHQFGIVHRDVKPSNFLYNRRLKKYALVDFGLAQGTHDTKIELLKFVQSEAQQERCSQNKSHIITGNKIPLSGPVPKELDQQSTTKASVKRPYTNAQIQIKQGKDGKEGSVGLSVQRSVFGERNFNIHSSISHESPAVKLMKQSKTVDVLSRKLATKKKAISTKVMNSAVMRKTASSCPASLTCDCYATDKVCSICLSRRQQVAPRAGTPGFRAPEVLTKCPNQTTAIDMWSAGVIFLSLLSGRYPFYKASDDLTALAQIMTIRGSRETIQAAKTFGKSILCSKEVPAQDLRKLCERLRGMDSSTPKLTSDIQGHASHQPAISEKTDHKASCLVQTPPGQYSGNSFKKGDSNSCEHCFDEYNTNLEGWNEVPDEAYDLLDKLLDLNPASRITAEEALLHPFFKDMSL	DRF1 is a regulatory subunit of CDC7 able to induce its kinase activity in a way comparable to DBF4 (lane 5)	DRF1, as DBF4, was detected as a phosphoprotein when expressed with wild type CDC7 but not with the kinase negative	In the presence of HA-DRF1 and wild-type CDC7, efficient phosphorylation of MCM2 (1-285) (above the background shown in lane 4, panel B) was observed	in the presence of DRF1, CDC7 is able to phosphorylate its physiological substrates MCM2
FLAG-tagged human CDC7 kinase, kinase negative form K90R (pCdc7FLAG K90R) (protein) MEASLGIQMDEPMAFSPQRDRFQAEGSLKKNEQNFKLAGVKKDIEKLYEAVPQLSNVFKIEDKIGEGTFSSVYLATAQLQVGPEEKIALRHLIPTSHPIRIAAELQCLTVAGGQDNVMGVKYCFRKNDHVVIAMPYLEHESFLDILNSLSFQEVREYMLNLFKALKRIHQFGIVHRDVKPSNFLYNRRLKKYALVDFGLAQGTHDTKIELLKFVQSEAQQERCSQNKSHIITGNKIPLSGPVPKELDQQSTTKASVKRPYTNAQIQIKQGKDGKEGSVGLSVQRSVFGERNFNIHSSISHESPAVKLMKQSKTVDVLSRKLATKKKAISTKVMNSAVMRKTASSCPASLTCDCYATDKVCSICLSRRQQVAPRAGTPGFRAPEVLTKCPNQTTAIDMWSAGVIFLSLLSGRYPFYKASDDLTALAQIMTIRGSRETIQAAKTFGKSILCSKEVPAQDLRKLCERLRGMDSSTPKLTSDIQGHASHQPAISEKTDHKASCLVQTPPGQYSGNSFKKGDSNSCEHCFDEYNTNLEGWNEVPDEAYDLLDKLLDLNPASRITAEEALLHPFFKDMSL	–	–	it can be abolished by overexpression of the mutant K90R (lanes 1 and 6)	–

Reference: patent US20040102611
